B1: LINE1-full (parent)
chain: UACGUAGGUGGUUUUCCCCUGAUAGUGCUAAGGGGGCCUGGAAGUUUGGACUGGGCAGAGCUCAACACAGCGUGGCAAAGUGGCUGUGGCUAGACUGCCUCUCUGGAUUCCUCGUCACUCAGCAGGGCAUCUCUGAGAGAAAUGCC

This series covers variants of B1. Description: self-cleavage, relative activity (ratio to wild type); higher = more cleavage; in vitro, sequencing; the parent is a self-cleaving ribozyme.
As for UACGUAGGUGGUUUUCCCCUGAUAGUGCUAAGGGGGCCUGGAAGUUCGGACUGGGCAGAGCUCAACACAGCGUGGCAAAGUGGCUGUGGCUAGACUGCCUCUCUGGAUUCCUCGUCACUCAGCAGGGCAUCUCUGAGAGUAAUGCC [U47C A140U], the self-cleavage was found to be 0.6.

UACGUAGGUGGUUUUCCCCUGAUAGUGCUAAGGGGGCCUGGAAGUUCGGACUGGGCAGAGCUCAACACAGCGUGGCAAAGUGGCUGUGGCUAGACUGCCUCUCUGGGUUCCUCGUCACUCAGCAGGGCAUCUCUGAGAGAAAUGCC [U47C A107G]: the self-cleavage worked out at 1.43.

With UACGUAGGUGGUUUUCCCCUGAUAGUGCUAAGGGGGCCUGGAAGUUCGGACUGGGCUGAGCUCAACACAGCGUGGCAAAGUGGCUGUGGCUAGACUGCCUCUCUGGAUUCCUCGUCACUCAGCAGGGCAUCUCUGAGAGAAAUGCC [U47C A57U], the self-cleavage came to 0.29.

Regarding UACGUAGGUGGUUUUCCCCUGAUAGUGCUAAGGGGGCCUGGAAGUUCGGACUGGGCAGAGCUCAACACAGCGUGGCAAAGUGGGUGUGGCUAGACUGCCUCUCUGGAUUCCUCGUCACUCAGCAGGGCAUCUCUGAGAGAAAUGCC [U47C C84G], the self-cleavage amounted to 0.11.

On to UACGUAGGUGGUUUUCCCCUGAUAGUGCUAAGGGGGCCUGGAAGUUCGGACUGGGCAGAGCUCAACACAGCGUGGCAAAGUGGUUGUGGCUAGACUGCCUCUCUGGAUUCCUCGUCACUCAGCAGGGCAUCUCUGAGAGAAAUGCC [U47C C84U], for which the self-cleavage was 0.38.

For the variant UACGUAGGUGGUUUUCCCCUGAUAGUGCUAAGGGGGCCUGGAAGUUCGGACUGGGCAGUGCUCAACACAGCGUGGCAAAGUGGCUGUGGCUAGACUGCCUCUCUGGAUUCCUCGUCACUCAGCAGGGCAUCUCUGAGAGAAAUGCC [U47C A59U], the self-cleavage came out at 0.6.

For UACGUAGGUGGUUUUCCCCUGAUAGUGCUAAGGGGGCCUGGAAGUUCGGACUGGGCAGGGCUCAACACAGCGUGGCAAAGUGGCUGUGGCUAGACUGCCUCUCUGGAUUCCUCGUCACUCAGCAGGGCAUCUCUGAGAGAAAUGCC [U47C A59G], the self-cleavage is 0.12.

Take UACGUAGGUGGUUUUCCCCUGAUAGUGCUAAGGGGGCCUGGAAGUUCGGACUGGGCAGAGCUCAACACGGCGUGGCAAAGUGGCUGUGGCUAGACUGCCUCUCUGGAUUCCUCGUCACUCAGCAGGGCAUCUCUGAGAGAAAUGCC [U47C A69G]: the self-cleavage was 0.44.

For UACGUAGGUGGUUUUCCCCUGAUAGUGCUAAGGGGGCCUGGAAGUUCGGACUGGGUAGAGCUCAACACAGCGUGGCAAAGUGGCUGUGGCUAGACUGCCUCUCUGGAUUCCUCGUCACUCAGCAGGGCAUCUCUGAGAGAAAUGCC [U47C C56U], the self-cleavage was 0.42.

Consider UACGUAGGUGGUUUUCCCCUGAUAGUGCUAAGGGGGCCUGGAAGUUCGGACUGGGCAGAGCUCGACACAGCGUGGCAAAGUGGCUGUGGCUAGACUGCCUCUCUGGAUUCCUCGUCACUCAGCAGGGCAUCUCUGAGAGAAAUGCC [U47C A64G], for which the self-cleavage was found to be 0.31.

Turning to UACGUAGGUGGUUUUCCCCUGAUAGUGCUAAGGGGGCCUGGAAGUUCGGACUGGGCAGAGCUCUACACAGCGUGGCAAAGUGGCUGUGGCUAGACUGCCUCUCUGGAUUCCUCGUCACUCAGCAGGGCAUCUCUGAGAGAAAUGCC [U47C A64U], the self-cleavage is 0.52.

On to UACGUAGGUGGUUUUCCCCUGAUAGUGCUAAGGGGGCCUGGAAGUUCGGACUGGGCAGAGCUCAACACAGCGUGGCAAAGUGGCUGUGGCUUGACUGCCUCUCUGGAUUCCUCGUCACUCAGCAGGGCAUCUCUGAGAGAAAUGCC [U47C A92U], for which the self-cleavage came to 0.77.

Regarding UACGUAGGUGGUUUUCCCCUGAUAGUGCUAAGGGGGCCUGGAAGUUCGGACUGGGCAGAGCUUAACACAGCGUGGCAAAGUGGCUGUGGCUAGACUGCCUCUCUGGAUUCCUCGUCACUCAGCAGGGCAUCUCUGAGAGAAAUGCC [U47C C63U], the self-cleavage came out at 0.37.

For the variant UACGUAGGUGGUUUUCCCCUGAUAGUGCUAAGGGGGCCUGGAAGUUCGGACUGGGCAGAGCUCAACACAGCGUGGCAAGGUGGCUGUGGCUAGACUGCCUCUCUGGAUUCCUCGUCACUCAGCAGGGCAUCUCUGAGAGAAAUGCC [U47C A79G], the self-cleavage amounted to 1.39.

On to UACGUAGGUGGUUUUCCCCUGAUAGUGCUAAGGGGGCCUGGAAGUUCGGACUGGGCAGAGCUCAACACAGCGUGGCAAAGUGGCUGUGGCUAGACUGCCUCUCUGGAUUCCUCGUCACUCAGCAGGGCAUCUCUGAGUGAAAUGCC [U47C A138U], for which the self-cleavage is 1.52.

With UACGUAGGUGGUUUUCCCCUGAUAGUGCUAAGGGGGCCUGGAAGUUAGGACUGGGCAGAGCUCAACACAGCGUGGCAAAGUGGCUGUGGCUAGACUGCCUCUCUGGAUUCCUCGUCACUCAGCAGGGCAUCUCUGAGAGAAAGGCC [U47A U143G], the self-cleavage was found to be 1.2.

For UACGUAGGUGGUUUUCCCCUGAUAGUGCUAAGGGGGCCUGGAAGUUCGGACUGGGCAGAGCUCAACACAGCGUGGCAAAGUGGCUGUGGCUAGACUGCCUCUCUGGAUUCCUCGUCACUCAGCAGGGCGUCUCUGAGAGAAAUGCC [U47C A129G], the self-cleavage came out at 1.49.

As for UACGUAGGUGGUUUUCCCCUGAUAGUGCUAAGGGGGCCUGGAAGUUCGGACUGGGCAGAGCUCAACACAGCGUGGCAAAGUGGCUGUGGCUAGACUGCCUCUCUGGAUUCAUCGUCACUCAGCAGGGCAUCUCUGAGAGAAAUGCC [U47C C111A], the self-cleavage amounted to 1.79.

For UACGUAGGUGGUUUUCCCCUGAUAGUGCUAAGGGGGCCUGGAAGUUCGGACUGGGCAGAGCUCAGCACAGCGUGGCAAAGUGGCUGUGGCUAGACUGCCUCUCUGGAUUCCUCGUCACUCAGCAGGGCAUCUCUGAGAGAAAUGCC [U47C A65G], the self-cleavage amounted to 0.09.

In the case of UACGUAGGUGGUUUUCCCCUGAUAGUGCUAAGGGGGCCUGGAAGUUCGGACUGGGCAGAGCUCACCACAGCGUGGCAAAGUGGCUGUGGCUAGACUGCCUCUCUGGAUUCCUCGUCACUCAGCAGGGCAUCUCUGAGAGAAAUGCC [U47C A65C], the self-cleavage was 0.

In the case of UACGUAGGUGGUUUUCCCCUGAUAGUGCUAAGGGGGCCUGGAAGUUCGGACUGGGCAGAGCUCAACACAGCGUGGCAAAGUGGCUGUGGCUAGACUGCCUCUCUGGAUUCCUCGUCCCUCAGCAGGGCAUCUCUGAGAGAAAUGCC [U47C A117C], the self-cleavage was 1.96.

For the variant UACGUAGGUGGUUUUCCCCUGAUAGUGCUAAGGGGGCCUGGAAGUUCGGACUGGGCAGAGCUCAACACAGCGUGGCAAAGUGGCUGUGGCUAGACUGCCUCUCUGGAUUCCUCGUCACUCAGCAGGGCAUCUCUGCGAGAAAUGCC [U47C A136C], the self-cleavage was 1.09.

As for UACGUAGGUGGUUUUCCCCUGAUAGUGCUAAGGGGGCCUGGAAGUUCGGACUGGGCAGAGCUCAACACAGCGUGGCAAAGUGGCUGUGGCUAGACUGCCUCUCUGGAUUCCUCGUCACUCAGCAGGGCAUCUCUGUGAGAAAUGCC [U47C A136U], the self-cleavage was determined as 1.24.

On to UACGUAGGUGGUUUUCCCCUGAUAGUGCUAAGGGGGCCUGGAAGUUCGGACUGGGCAGAGCUCAACACAGCGUGGCAAAGUGGCUGUGGCUAGACUGCCUCUCUGGAUUCCUAGUCACUCAGCAGGGCAUCUCUGAGAGAAAUGCC [U47C C113A], for which the self-cleavage came to 1.78.

With UACGUAGGUGGUUUUCCCCUGAUAGUGCUAAGGGGGCCUGGAAGUUCGGACUGGGCAGAGCUCAACACAGCGUGGCUAAGUGGCUGUGGCUAGACUGCCUCUCUGGAUUCCUCGUCACUCAGCAGGGCAUCUCUGAGAGAAAUGCC [U47C A77U], the self-cleavage was 1.2.

As for UACGUAGGUGGUUUUCCCCUGAUAGUGCUAAGGGGGCCUGGAAGUUCGGACUGGGCAGAGCUCAACACAGCGUGGCGAAGUGGCUGUGGCUAGACUGCCUCUCUGGAUUCCUCGUCACUCAGCAGGGCAUCUCUGAGAGAAAUGCC [U47C A77G], the self-cleavage came to 2.3.

Take UACGUAGGUGGUUUUCCCCUGAUAGUGCUAAGGGGGCCUGGAAGUUCGGACUGGGCAGAGCUCAACACAGCGUGGCAAAGUGGCUGUGGCUAGACUGUCUCUCUGGAUUCCUCGUCACUCAGCAGGGCAUCUCUGAGAGAAAUGCC [U47C C98U]: the self-cleavage is 0.52.

For the variant UACGUAGGUGGUUUUCCCCUGAUAGUGCUAAGGGGGCCUGGAAGUUCGGACUGGGCAGAGCUCAACACAGCGUGGCAAAGUGGCUGUGGCUAGUCUGCCUCUCUGGAUUCCUCGUCACUCAGCAGGGCAUCUCUGAGAGAAAUGCC [U47C A94U], the self-cleavage is 0.52.

With UACGUAGGUGGUUUUCCCCUGAUAGUGCUAAGGGGGCCUGGAAGUUCGGACUGGGCAGAGCUCAACACAGCGUGGCAAAGUGGCUGUGGCUAGCCUGCCUCUCUGGAUUCCUCGUCACUCAGCAGGGCAUCUCUGAGAGAAAUGCC [U47C A94C], the self-cleavage stood at 0.12.

UACGUAGGUGGUUUUCCCCUGAUAGUGCUAAGGGGGCCUGGAAGUUCGGACUGGGCAGAGCUCAACACAGCGUGGCAUAGUGGCUGUGGCUAGACUGCCUCUCUGGAUUCCUCGUCACUCAGCAGGGCAUCUCUGAGAGAAAUGCC [U47C A78U]: the self-cleavage was determined as 1.89.

Turning to UACGUAGGUGGUUUUCCCCUGAUAGUGCUAAGGGGGCCUGGAAGUUCGGACUGGGCAGAGCUCAACACAGCGUGGCACAGUGGCUGUGGCUAGACUGCCUCUCUGGAUUCCUCGUCACUCAGCAGGGCAUCUCUGAGAGAAAUGCC [U47C A78C], the self-cleavage was 1.96.

Consider UACGUAGGUGGUUUUCCCCUGAUAGUGCUAAGGGGGCCUGGAAGUUCGGACUGGGCAGAGCUCAACACAGCGUGGCAAAGUGGCUGUGGCUAGACUGCCUCUCUGGAUUCCUCGUCACUCCGCAGGGCAUCUCUGAGAGAAAUGCC [U47C A121C], for which the self-cleavage was determined as 1.05.

For the variant UACGUAGGUGGUUUUCCCCUGAUAGUGCUAAGGGGGCCUGGAAGUUCGGACUGGGCAGAGCUCAACACAGCGUGGCAAAGUGGCUGUGGCUAGACUGCCUCUCUGGAUUCCUCGUCACUCGGCAGGGCAUCUCUGAGAGAAAUGCC [U47C A121G], the self-cleavage was determined as 1.92.

Regarding UACGUAGGUGGUUUUCCCCUGAUAGUGCUAAGGGGGCCUGGAAGUUCGGACUGGGCAGAGCUCAACACAGCGUGGCAAAGUGGCUGUGGCUAGACUGCCUCUCUGGAUUCCUCGUCACUCUGCAGGGCAUCUCUGAGAGAAAUGCC [U47C A121U], the self-cleavage turned out to be 1.52.

For the variant UACGUAGGUGGUUUUCCCCUGAUAGUGCUAAGGGGGCCUGGAAGUUCGGACUGGGCAGAGCUCAACACAGCGUGGCAAAGUGGCUGUGGCUAGACUGCCUCUCUGGAUUCCUCGUCACUCAGCAGGGUAUCUCUGAGAGAAAUGCC [U47C C128U], the self-cleavage turned out to be 1.42.

As for UACGUAGGUGGUUUUCCCCUGAUAGUGCUAAGGGGGCCUGGAAGUUCGGACUGGGCAGAGCUCAACACAGCGUGGCAAAGUGGCUGUGGCUAGACUGCCUCUCUGGAUUCCUCGUCAAUCAGCAGGGCAUCUCUGAGAGAAAUGCC [U47C C118A], the self-cleavage was 0.46.

Turning to UACGUAGGUGGUUUUCCCCUGAUAGUGCUAAGGGGGCCUGGAAGUUCGGCCUGGGCAGAGCUCAACACAGCGUGGCAAAGUGGCUGUGGCUAGACUGCCUCUCUGGAUUCCUCGUCACUCAGCAGGGCAUCUCUGAGAGAAAUGCC [U47C A50C], the self-cleavage came out at 0.94.

As for UACGUAGGUGGUUUUCCCCUGAUAGUGCUAAGGGGGCCUGGAAGUUCGGGCUGGGCAGAGCUCAACACAGCGUGGCAAAGUGGCUGUGGCUAGACUGCCUCUCUGGAUUCCUCGUCACUCAGCAGGGCAUCUCUGAGAGAAAUGCC [U47C A50G], the self-cleavage worked out at 1.14.

Take UACGUAGGUGGUUUUCCCCUGAUAGUGCUAAGGGGGCCUGGAAGUUCGGACUGGGCAGAGCUCAACACAGCGUGGCAAAGUGGCUGUGGCUAGACUGCCUCUCUGGAUUCCUCGUCACUCAGCAGGGCAUCUCUGAGAGAAGUGCC [U47C A142G]: the self-cleavage worked out at 1.5.
